Experimental findings from article PMC3404956, “A Quorum Sensing-Disrupting Brominated Thiophenone with a Promising Therapeutic Potential to Treat Luminescent Vibriosis” are described below.

The target in this series is T1, GST-LuxR (Vibrio harveyi, UniProt P21308 1-205).
T1 sequence: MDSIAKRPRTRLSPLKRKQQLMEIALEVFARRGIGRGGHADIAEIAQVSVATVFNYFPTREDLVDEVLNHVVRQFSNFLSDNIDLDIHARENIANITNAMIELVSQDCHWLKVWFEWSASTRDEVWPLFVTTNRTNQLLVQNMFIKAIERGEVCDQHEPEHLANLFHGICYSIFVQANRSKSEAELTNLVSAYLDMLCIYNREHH
The series can be described thus: fluorescence anisotropy; no thiophenone; Kd value only in Figure 4B; 30°C; annealing in NaCl-Tris-EDTA buffer; binding buffer, salt and pH not stated (as in ref 37); ex 480 nm, em 535 nm. The following applies: protein: recombinant; chain copies: 2; label: 5'-fluorescein on strand 1; blunt.

B1: V. harveyi consensus LuxR binding sequence (dsDNA)
DNA 1: TATTGATAAATTTATCAATAA
DNA 2: TTATTGATAAATTTATCAATA
For B1, the binding result is on record as “binds”.
